From patent US20100330095A1 (U3 PHARMA, published 2010) come the findings set out here.

The target of assay [1] is T1, human receptor tyrosine kinase AXL transcript variant 1 (human, UniProt P30530 26-894).
T1 construct: Overexpressed on RatI-AXL cl.2 and NIH3T3-AXL cl.7 fibroblasts (pLXSN-hAXL); endogenous on human cancer cell lines and HUVEC in the functional assays; also called hAXL; human AXL
T1 sequence: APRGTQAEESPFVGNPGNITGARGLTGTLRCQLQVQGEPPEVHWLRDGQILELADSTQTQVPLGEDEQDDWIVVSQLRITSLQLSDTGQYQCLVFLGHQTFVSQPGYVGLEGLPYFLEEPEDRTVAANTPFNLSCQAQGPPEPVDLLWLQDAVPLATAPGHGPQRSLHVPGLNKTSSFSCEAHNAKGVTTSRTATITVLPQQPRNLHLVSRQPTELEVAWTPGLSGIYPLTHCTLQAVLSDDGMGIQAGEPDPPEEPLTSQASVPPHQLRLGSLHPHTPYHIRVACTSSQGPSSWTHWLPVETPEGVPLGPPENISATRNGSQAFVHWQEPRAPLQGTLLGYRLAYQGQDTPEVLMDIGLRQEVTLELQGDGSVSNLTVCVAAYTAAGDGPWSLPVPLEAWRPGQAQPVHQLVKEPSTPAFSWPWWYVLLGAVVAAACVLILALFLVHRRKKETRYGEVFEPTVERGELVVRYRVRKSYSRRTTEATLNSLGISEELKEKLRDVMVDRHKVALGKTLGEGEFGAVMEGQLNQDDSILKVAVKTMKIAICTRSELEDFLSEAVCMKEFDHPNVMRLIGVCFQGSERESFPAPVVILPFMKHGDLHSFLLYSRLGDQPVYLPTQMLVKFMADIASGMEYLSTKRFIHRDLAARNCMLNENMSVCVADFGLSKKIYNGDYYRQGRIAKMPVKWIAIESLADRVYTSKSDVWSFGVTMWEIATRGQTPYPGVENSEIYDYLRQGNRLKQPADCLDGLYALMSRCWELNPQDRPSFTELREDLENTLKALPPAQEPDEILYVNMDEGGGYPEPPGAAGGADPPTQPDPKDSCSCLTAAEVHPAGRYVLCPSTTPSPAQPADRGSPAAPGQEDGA
In words: flow cytometry, NIH3T3-hAXL cells. In general terms: In flow cytometry, cells or beads pass a laser one at a time.

A further assay has as its target T2, cynomolgus monkey AXL (cynomolgus monkey, UniProt P30530 26-894 (human entry)).
T2 construct: Cloned from cynomolgus brain cDNA; transiently expressed on HEK293T cells (pcDNA3-cyAXL); also called cyAXL
T2 chain: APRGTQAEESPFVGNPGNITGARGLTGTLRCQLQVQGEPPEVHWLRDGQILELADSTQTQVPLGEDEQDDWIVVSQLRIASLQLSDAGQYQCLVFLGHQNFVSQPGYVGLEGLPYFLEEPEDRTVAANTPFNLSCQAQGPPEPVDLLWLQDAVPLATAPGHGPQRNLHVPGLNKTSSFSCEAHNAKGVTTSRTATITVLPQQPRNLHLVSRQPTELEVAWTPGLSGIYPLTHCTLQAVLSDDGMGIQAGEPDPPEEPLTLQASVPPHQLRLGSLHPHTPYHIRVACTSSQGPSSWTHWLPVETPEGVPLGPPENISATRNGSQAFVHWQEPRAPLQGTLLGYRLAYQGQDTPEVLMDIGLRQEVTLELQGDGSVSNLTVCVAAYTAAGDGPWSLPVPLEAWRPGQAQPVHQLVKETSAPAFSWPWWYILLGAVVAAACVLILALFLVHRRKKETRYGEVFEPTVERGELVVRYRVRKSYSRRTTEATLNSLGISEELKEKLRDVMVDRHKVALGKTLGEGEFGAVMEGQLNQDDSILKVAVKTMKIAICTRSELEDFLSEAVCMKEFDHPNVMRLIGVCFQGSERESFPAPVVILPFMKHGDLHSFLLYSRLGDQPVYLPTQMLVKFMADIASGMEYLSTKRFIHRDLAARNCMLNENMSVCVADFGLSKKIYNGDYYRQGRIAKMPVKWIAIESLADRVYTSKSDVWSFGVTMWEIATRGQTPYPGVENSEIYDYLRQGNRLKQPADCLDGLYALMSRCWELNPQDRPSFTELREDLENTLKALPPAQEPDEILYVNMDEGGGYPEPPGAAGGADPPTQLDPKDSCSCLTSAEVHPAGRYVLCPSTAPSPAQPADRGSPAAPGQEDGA
Kind of assay: flow cytometry, transfected HEK293T cells, 10 µg/ml. The procedure:
FIG. 3. Flow cytometry analysis of cross-reactivity of rat-anti AXL antibodies with mouse and cynomolgus monkey AXL as well as human Mer and Sky. HEK293T fibroblasts were transiently transfected with pcDNA3, pcDNA3-hAXL, pcDNA3 mAXL, pcDNA3-cyAXL, pcDNA3-hMer, or pcDNA3-hSky. […] See text for details.
For FACS analysis, 2×10⁵ cells were harvested with 10 mM EDTA in PBS, washed once with FACS buffer (PBS, 3% FCS, 0.4% azide) and seeded on a 96 well round bottom plate. […] After incubation on ice for 1 h, cells were washed twice with chilled FACS buffer and resuspended with PE-conjugated donkey anti-rat (Jackson) secondary antibody diluted 1:50 in FACS buffer (100 μl/well) or PE-conjugated donkey anti-mouse secondary antibody for control. Protected from light, cells were incubated on ice for 30 min, washed twice with FACS buffer and analyzed using an Epics XL-MCL flow cytometer (Beckman Coulter).

B1: III 11D5 (antibody, rat IgG2a, V domains shown)
VH: EVQLQESGPGLVKPSQSLSLTCSVTGYSITSNYWGWIRKFPGNKMEWIGHITNSGNTTYNPSLKSRISISRDTSRNQFFLQLNSVTTEDTATYYCAKGAFDYWGQGVMVTVSS
VL: DIQMTQSPSSMSTSLGDRVTITCRASQDIGNYLSWFQQKVGKSPRRMIYGAIKLAVGVPSRFSGSRSGSDYSLTISSLESEDMAIYYCLQYIQFPLTFGSGTKLELK
notes: rat hybridoma antibody, antagonistic
B1: the FACS shift in assay [1] turned out to be 8.9. Further, the binding result in the assay with cynomolgus monkey AXL is on record as “binds”.

B2: I 11B7 (antibody, V domains shown)
VH: EVQLQESGPGLVKPSQSLSLTCSVTGYSITSNYWGWIRKFPGDKMEWMGYITYSGSTSYNPSLKSRISITRDTSKNQFFLQLNSVTSEDTATYYCAITTFYYWGQGVMVTVSS
VL: DIQMTQAPSSLPASLGDRVTITCRASQDIGNYLRWFQQKPGKSPRLMISGATNLAAGVPSRFSGSRSGSDYSLTISSLESEDMADYYCLQSKESPWTFGGGTKLELK
notes: as for B1
For the molecule B2, the FACS shift in assay [1] worked out at 36.2. The binding result in the assay with cynomolgus monkey AXL was “binds”.

B3: I 10D12 (antibody, V domains shown)
VH: EVQLQESGPGLVKPSQSLSLTCSVTGYSITSNYWGWIRKFPGNKMEWMGYITNSGGTAYNPSLKSRISITRDTSKNQFFLQLNSVIPEDSATYFCSRTPWDWGQGVMVTVSS
VL: DIQMTQAPSSLPASLGDRVTIACRASQDIGNYLRWFQQKPGKSPRLMISGATNLAAGVPSRFSGSRSGSDYSRTISSLESEDMADYYCLQSKESPWTFGGGTKLELK
notes: rat hybridoma antibody, antagonistic; subclass G1
Turning to B3, the FACS shift in assay [1] was 37.5. In addition, the binding result with cynomolgus monkey AXL is “binds”.
